Experimental data as given in patent publication US20110190200A1 (INDIANA UNIVERSITY RESEARCH AND TECHNOLOGY, published 2011).
Blank lines part the entries; values can stand above or below the binder they belong to. Square brackets hold non-standard residues; d marks the D form. Ends that are not written are not given here. Aib = CC(C)(N)C(=O)O

What was measured:
Experiment in all cases: cell-based or functional assay
[1] = biological target: T1, GLP-1 receptor (UniProt P43220 24-463, limits assumed)
[2] = biological target: T2, glucagon receptor (human, UniProt P47871 26-477)
[3] = biological target: T2, glucagon receptor; remark: listed apart in the source
[4] = biological target: T2, glucagon receptor; remark: listed apart in the source
[5] = biological target: T1, GLP-1 receptor; remark: listed apart in the source
[6] = biological target: T1, GLP-1 receptor; remark: listed apart in the source
[7] = biological target: T2, glucagon receptor; remark: listed apart in the source
[8] = biological target: T2, glucagon receptor; remark: listed apart in the source

T2 sequence (P47871 26-477): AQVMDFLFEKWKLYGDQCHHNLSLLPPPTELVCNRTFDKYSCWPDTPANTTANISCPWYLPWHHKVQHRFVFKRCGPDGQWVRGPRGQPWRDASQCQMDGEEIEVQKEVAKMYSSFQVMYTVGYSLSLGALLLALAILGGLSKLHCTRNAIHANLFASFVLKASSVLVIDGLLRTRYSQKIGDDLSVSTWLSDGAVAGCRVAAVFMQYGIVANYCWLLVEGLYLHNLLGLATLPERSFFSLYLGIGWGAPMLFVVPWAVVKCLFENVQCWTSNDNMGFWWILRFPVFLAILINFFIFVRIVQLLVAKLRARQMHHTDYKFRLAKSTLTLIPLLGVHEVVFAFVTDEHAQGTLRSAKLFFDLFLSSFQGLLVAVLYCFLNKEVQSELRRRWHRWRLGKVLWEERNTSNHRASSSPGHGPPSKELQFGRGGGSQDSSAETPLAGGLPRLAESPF

B2: Peptide dS2E16K20K30-C16 Gluc Amide (peptide)
peptide: HXQGTFTSDYSKYLDERRAKDFVQWLMNTK
modifications: d-Ser at position 2; Lys at position 30 acylated with a C16 fatty acyl group; C-terminal amide
EC50 at the GLP-1 receptor [1]: 3.05 nM
EC50 at the glucagon receptor [2]: 4.89 nM

B3: Peptide dS2E16K20K30-C14 Gluc Amide (peptide)
peptide: B2 peptide
modifications: d-Ser at position 2; Lys at position 30 acylated with a C14 fatty acyl group; C-terminal amide
EC50 at the GLP-1 receptor [1]: 0.84 nM
EC50 at the glucagon receptor [2]: 3.53 nM

B4: D28/E29 Glucagon (peptide)
peptide: HSQGTFTSDYSKYLDSRRAQDFVQWLMDE
Observed EC50s (nM) in Cells Overexpressing the Glucagon Receptor, Test 3 [3]: 0.03 nM
EC50, in vitro activity at the glucagon receptor [4]: 0.06 nM

B5: AIB 16, 20, 24 Glucagon (peptide)
peptide: HSQGTFTSDYSKYLD[Aib]RRA[Aib]DFV[Aib]WLMNT
GLP-1 Receptor, Average (assay of Example 13) [5]: 12.2 nM

B8: AIB 16/D28/E29 Glucagon (peptide)
peptide: HSQGTFTSDYSKYLD[Aib]RRAQDFVQWLMDE
EC50, in vitro activity at the glucagon receptor [4]: 0.08 nM

B9: Peptide dS2K10(C16)E16K20-Gluc Amide (peptide)
peptide: HXQGTFTSDKSKYLDERRAKDFVQWLMNT
modifications: d-Ser at position 2; Lys at position 10 acylated with a C16 fatty acyl group; C-terminal amide
EC50 at the GLP-1 receptor [1]: 0.041 nM
EC50 at the glucagon receptor [2]: 0.076 nM

Results, then the binder that gave them:

EC50 at the GLP-1 receptor [1]: 0.041 nM
EC50 at the glucagon receptor [2]: 0.155 nM
B1: Peptide dS2K10(C14)E16K20-Gluc Amide (peptide)
peptide: HXQGTFTSDKSKYLDERRAKDFVQWLMNT
modifications: d-Ser at position 2; Lys at position 10 acylated with a C14 fatty acyl group; C-terminal amide

cAMP Induction, EC50 [6]: 0.41 nM
cAMP Induction, EC50 [7]: 0.81 nM
B6: Glucagon R12 K29 (peptide)
peptide: HSQGTFTSDYSRYLDSRRAQDFVQWLMNK

GLP-1 Receptor, Average (assay of Example 13) [5]: 13.6 nM
Glucagon Receptor, Average (assay of Example 13) [8]: 0.26 nM
B7: AIB 16, 20 Glucagon (peptide)
peptide: HSQGTFTSDYSKYLD[Aib]RRA[Aib]DFVQWLMNT
